Measurements as given in publication PMC8834437, “Physical Interaction between Embryonic Stem Cell-Expressed Ras (ERas) and Arginase-1 in Quiescent Hepatic Stellate Cells” (Cells, 2022).

T1: purified arginase 1 (ARG1; aa 1-322) (UniProt P05089 1-322)
T1 construct: Arginase 1 (ARG1), P05089, aa 1-322; Named MBP-ARG1 only for the SPR; also called MBP-ARG1; purified ARG1
T1 sequence (looked up): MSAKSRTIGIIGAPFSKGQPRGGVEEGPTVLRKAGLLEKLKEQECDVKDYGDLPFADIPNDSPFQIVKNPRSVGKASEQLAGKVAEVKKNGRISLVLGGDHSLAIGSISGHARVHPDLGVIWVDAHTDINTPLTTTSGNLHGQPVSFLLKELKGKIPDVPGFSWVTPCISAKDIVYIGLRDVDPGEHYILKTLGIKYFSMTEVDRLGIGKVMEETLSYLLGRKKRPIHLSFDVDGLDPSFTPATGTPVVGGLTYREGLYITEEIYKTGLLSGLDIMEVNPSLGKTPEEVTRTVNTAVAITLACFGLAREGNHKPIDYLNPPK

B1: GST-rnFL (rat ERas full length, aa 1-227) (natural protein, UniProt D3ZTE4 1-227, looked up)
chain: MALPTKSSILDLSPGTQCSRSPEESHEAWAQCKDAGRQLPEYKAVVVGASGVGKSALTIQMTHHCFVKDHDPTIQDSYWKEVALDNGGYILNVLDTAGQDSHRALRDQCLAAGDGVLGVFALDDPSSLDQLQQICSTWNPHHKQPLVLVGNKSDLVSSAGDAHTAAAVLAHKLGAPLVKTSAKTRQGVEEAFALLVHEIQRAQEAVAESSKKTRHHKAVCSCGCSVA
notes: Embryonic stem cell-expressed Ras (ERas), rat, D3ZTE4, FL aa 1-227; also called GST-FL of rat ERas
B2: GST-hsNex (human ERas N-terminal extension, aa 1-38) (domain or fragment, UniProt Q7Z444 1-38, looked up)
chain: MELPTKPGTFDLGLATWSPSFQGETHRAQARRRDVGRQ
notes: Embryonic stem cell-expressed Ras (ERas), human, Q7Z444, N-terminal extension (Nex) aa 1-38; Cloned into pMal-c5X-His or pGEX-4T1-N-TEV; used as GST fusion; also called ERas hsNex; GST-Nex of human ERas
B3: GST-rnNex (rat ERas N-terminal extension, aa 1-38) (domain or fragment, UniProt D3ZTE4 1-38, looked up)
chain: MALPTKSSILDLSPGTQCSRSPEESHEAWAQCKDAGRQ
notes: Embryonic stem cell-expressed Ras (ERas), rat, D3ZTE4, N-terminal extension (Nex) aa 1-38; also called ERas rnNex; GST-Nex of rat ERas
B4: GST-hsFL (human ERas full length, aa 1-233) (natural protein, UniProt Q7Z444 1-233, looked up)
chain: MELPTKPGTFDLGLATWSPSFQGETHRAQARRRDVGRQLPEYKAVVVGASGVGKSALTIQLNHQCFVEDHDPTIQDSYWKELTLDSGDCILNVLDTAGQAIHRALRDQCLAVCDGVLGVFALDDPSSLIQLQQIWATWGPHPAQPLVLVGNKCDLVTTAGDAHAAAAALAHSWGAHFVETSAKTRQGVEEAFSLLVHEIQRVQEAMAKEPMARSCREKTRHQKATCHCGCSVA
notes: Embryonic stem cell-expressed Ras (ERas), human, Q7Z444, FL aa 1-233; also called ERas hsFL; GST-FL of human ERas

Tests used:
[1] = biological target: T1, purified arginase 1 (ARG1; aa 1-322); test: pull-down; GST-fusion proteins immobilized on GSH agarose beads, mixed with purified ARG1, 1 h at 4 °C; conditions: both partners purified
[2] = biological target: T1, purified arginase 1 (ARG1; aa 1-322); test: SPR; Biacore X100, CM5 chip, GST-hsNex (10 µM) captured by immobilized anti-GST antibody, MBP-ARG1 0.5-20 µM injected, 25 °C, 10 mM HEPES pH 7.4, 150 mM NaCl, 0.05% P20, Langmuir 1:1 model; conditions: both partners purified

Row | binding result [1] | Kd [2] [nM] | Binder
1 | binds |  | B1
2 |  | 2100 | B2
3 | binds |  | B3
4 | binds |  | B4
